Results as given in the supplement of paper PMC7125110.
± gives the standard error. For some of these results: This sample holds only a part of the variants without activity.

B1: glmS ribozyme (parent)
chain: AUAAAAGCGCCAGAACUACAGAAAUGUAGUUGACGAGGAGGAGGUUUAUCGAAUUUUCGGCGGAUGCCUCCAAA

Tests used:
Conditions in all cases: with glucosamine-6-phosphate
[1] = variants of: B1; experiment: kcat; higher = faster cleavage; RNA array
How it was run: (§1)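 Barcoded ribozyme variants, transcribed in situ by E. coli RNA polymerase on sequenced MiSeq chips, were followed via a hybridised Cy3 probe at 37 °C. Glucosamine-6-phosphate ranged from 40 μM to 10 mM in HEPES/KCl/Mg(OAc)2 buffer. kobs came from decay fits to per-tile medians, and kcat and KM from weighted Michaelis–Menten fits.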

[2] = variants of: B1; experiment: KM; higher = weaker cofactor use; RNA array
How it was run: as §1

[3] = variants of: B1; experiment: self-cleavage kobs at 160 uM GlcN6P; higher = faster cleavage; RNA array
How it was run: as §1

[4] = variants of: B1; experiment: self-cleavage kobs at 640 uM GlcN6P; higher = faster cleavage; RNA array
How it was run: as §1

[5] = variants of: B1; experiment: self-cleavage kobs at 2500 uM GlcN6P; higher = faster cleavage; RNA array
How it was run: as §1

[6] = variants of: B1; experiment: self-cleavage kobs at 10000 uM GlcN6P; higher = faster cleavage; RNA array
How it was run: as §1

[7] = variants of: B1; experiment: self-cleavage kobs at 40 uM GlcN6P; higher = faster cleavage; RNA array
How it was run: as §1

Variant: A53C G66U
- kcat [1]: 0.000484 ± 6.4e-05 s⁻¹
- KM [2]: 1770 ± 450 µM
- self-cleavage kobs at 160 uM GlcN6P [3]: 3.36e-05 ± 1.5e-05 s⁻¹
- self-cleavage kobs at 640 uM GlcN6P [4]: 0.000128 ± 3.6e-05 s⁻¹
- self-cleavage kobs at 2500 uM GlcN6P [5]: 0.000344 ± 8.3e-05 s⁻¹
- self-cleavage kobs at 10000 uM GlcN6P [6]: 0.00039 ± 7.6e-05 s⁻¹

Variant: U54C C70G
- kcat [1]: 0.000186 ± 3.5e-05 s⁻¹
- self-cleavage kobs at 40 uM GlcN6P [7]: 5.08e-05 ± 1.5e-05 s⁻¹
- self-cleavage kobs at 160 uM GlcN6P [3]: 0.000109 ± 3.8e-05 s⁻¹
- self-cleavage kobs at 640 uM GlcN6P [4]: 0.000175 ± 2.3e-05 s⁻¹
- self-cleavage kobs at 2500 uM GlcN6P [5]: 0.000139 ± 2.6e-05 s⁻¹
- self-cleavage kobs at 10000 uM GlcN6P [6]: 0.000325 ± 6.2e-05 s⁻¹

Variant: U54C C70U
- kcat [1]: 0.00794 ± 0.0014 s⁻¹
- KM [2]: 507 ± 130 µM
- self-cleavage kobs at 40 uM GlcN6P [7]: 0.000628 ± 8e-05 s⁻¹
- self-cleavage kobs at 160 uM GlcN6P [3]: 0.00162 ± 0.00035 s⁻¹
- self-cleavage kobs at 640 uM GlcN6P [4]: 0.00435 ± 0.0008 s⁻¹
- self-cleavage kobs at 10000 uM GlcN6P [6]: 0.00879 ± 0.0016 s⁻¹

Variant: A53G C70G
- kcat [1]: 0.000195 ± 1.8e-05 s⁻¹
- self-cleavage kobs at 40 uM GlcN6P [7]: 0.000132 ± 2.3e-05 s⁻¹
- self-cleavage kobs at 160 uM GlcN6P [3]: 0.000309 ± 9.5e-05 s⁻¹
- self-cleavage kobs at 640 uM GlcN6P [4]: 0.000196 ± 2.9e-05 s⁻¹
- self-cleavage kobs at 2500 uM GlcN6P [5]: 0.000173 ± 2.5e-05 s⁻¹
- self-cleavage kobs at 10000 uM GlcN6P [6]: 0.000215 ± 3.6e-05 s⁻¹

Variant: C58A C71U
- kcat [1]: 0.00051 ± 0.0001 s⁻¹
- KM [2]: 3890 ± 1200 µM
- self-cleavage kobs at 160 uM GlcN6P [3]: 4.42e-05 ± 1.2e-05 s⁻¹
- self-cleavage kobs at 640 uM GlcN6P [4]: 7.43e-05 ± 7.2e-06 s⁻¹
- self-cleavage kobs at 2500 uM GlcN6P [5]: 0.000183 ± 1.6e-05 s⁻¹
- self-cleavage kobs at 10000 uM GlcN6P [6]: 0.000386 ± 3.2e-05 s⁻¹

Variant: U55C G66C
- kcat [1]: 0.00112 ± 9.6e-05 s⁻¹
- KM [2]: 1950 ± 340 µM
- self-cleavage kobs at 160 uM GlcN6P [3]: 7.47e-05 ± 1.8e-05 s⁻¹
- self-cleavage kobs at 640 uM GlcN6P [4]: 0.000336 ± 7.1e-05 s⁻¹
- self-cleavage kobs at 2500 uM GlcN6P [5]: 0.000678 ± 0.00012 s⁻¹
- self-cleavage kobs at 10000 uM GlcN6P [6]: 0.000913 ± 9.7e-05 s⁻¹

Variant: U56C C71A
- kcat [1]: 4.36e-05 ± 8.2e-06 s⁻¹
- self-cleavage kobs at 2500 uM GlcN6P [5]: 5.14e-05 ± 1.2e-05 s⁻¹
- self-cleavage kobs at 10000 uM GlcN6P [6]: 3.76e-05 ± 9e-06 s⁻¹

Variant: U55C U56C
- kcat [1]: 9.63e-05 ± 1.9e-05 s⁻¹
- self-cleavage kobs at 640 uM GlcN6P [4]: 4.92e-05 ± 2e-05 s⁻¹
- self-cleavage kobs at 2500 uM GlcN6P [5]: 5.28e-05 ± 1e-05 s⁻¹
- self-cleavage kobs at 10000 uM GlcN6P [6]: 8.84e-05 ± 1.5e-05 s⁻¹

Variant: A53G G66U
- kcat [1]: 0.00201 ± 0.0004 s⁻¹
- KM [2]: 1650 ± 540 µM
- self-cleavage kobs at 40 uM GlcN6P [7]: 4.34e-05 ± 8.5e-06 s⁻¹
- self-cleavage kobs at 160 uM GlcN6P [3]: 0.000168 ± 3.4e-05 s⁻¹
- self-cleavage kobs at 640 uM GlcN6P [4]: 0.00056 ± 7.9e-05 s⁻¹
- self-cleavage kobs at 2500 uM GlcN6P [5]: 0.00179 ± 0.00022 s⁻¹
- self-cleavage kobs at 10000 uM GlcN6P [6]: 0.00154 ± 0.00019 s⁻¹

Variant: U56A C70A
- kcat [1]: 8.96e-05 ± 1.4e-05 s⁻¹
- self-cleavage kobs at 40 uM GlcN6P [7]: 3.68e-05 ± 1.1e-05 s⁻¹
- self-cleavage kobs at 160 uM GlcN6P [3]: 5.73e-05 ± 1.1e-05 s⁻¹
- self-cleavage kobs at 640 uM GlcN6P [4]: 7.05e-05 ± 1.1e-05 s⁻¹
- self-cleavage kobs at 2500 uM GlcN6P [5]: 0.000153 ± 2.3e-05 s⁻¹
- self-cleavage kobs at 10000 uM GlcN6P [6]: 8.51e-05 ± 9.4e-06 s⁻¹

Variant: U56A C70G
- kcat [1]: 0.000119 ± 1.4e-05 s⁻¹
- self-cleavage kobs at 40 uM GlcN6P [7]: 4.01e-05 ± 1e-05 s⁻¹
- self-cleavage kobs at 160 uM GlcN6P [3]: 8.18e-05 ± 1e-05 s⁻¹
- self-cleavage kobs at 640 uM GlcN6P [4]: 0.000105 ± 1.1e-05 s⁻¹
- self-cleavage kobs at 2500 uM GlcN6P [5]: 0.000153 ± 1.5e-05 s⁻¹
- self-cleavage kobs at 10000 uM GlcN6P [6]: 0.0001 ± 1.1e-05 s⁻¹

Variant: U57G G59U U65G C68U
- kcat [1]: 1.85e-05 ± 4.8e-06 s⁻¹

Variant: C58A G60C C67G
- kcat [1]: 1.21e-05 ± 3.8e-06 s⁻¹

Variant: U55A C58A
- kcat [1]: 0.000722 ± 7.6e-05 s⁻¹
- KM [2]: 4620 ± 800 µM
- self-cleavage kobs at 640 uM GlcN6P [4]: 9.44e-05 ± 2e-05 s⁻¹
- self-cleavage kobs at 2500 uM GlcN6P [5]: 0.000254 ± 4.5e-05 s⁻¹
- self-cleavage kobs at 10000 uM GlcN6P [6]: 0.000491 ± 7.2e-05 s⁻¹

Variant: U56G U69C C70A
- kcat [1]: 6.04e-05 ± 1.7e-05 s⁻¹
- self-cleavage kobs at 160 uM GlcN6P [3]: 4.37e-05 ± 1.6e-05 s⁻¹
- self-cleavage kobs at 640 uM GlcN6P [4]: 8.99e-05 ± 2.7e-05 s⁻¹
- self-cleavage kobs at 2500 uM GlcN6P [5]: 6.56e-05 ± 1.5e-05 s⁻¹
